Data published in US20230395193A1 (priority 2020, published 2023).

B1: M-Q6PJG6 (protein, UniProt Q6PJG6 1-821, looked up)
Integrator complex assembly …: MDPECAQLLPALCAVLVDPRQPVADDTCLEKLLDWFKTVTEGESSVVLLQEHPCLVELLSHVLKVQDLSSGVLSFSLRLAGTFAAQENCFQYLQQGELLPGLFGEPGPLGRATWAVPTVRSGWIQGLRSLAQHPSALRFLADHGAVDTIFSLQGDSSLFVASAASQLLVHVLALSMRGGAEGQPCLPGGDWPACAQKIMDHVEESLCSAATPKVTQALNVLTTTFGRCQSPWTEALWVRLSPRVACLLERDPIPAAHSFVDLLLCVARSPVFSSSDGSLWETVARALSCLGPTHMGPLALGILKLEHCPQALRTQAFQVLLQPLACVLKATVQAPGPPGLLDGTADDATTVDTLLASKSSCAGLLCRTLAHLEELQPLPQRPSPWPQASLLGATVTVLRLCDGSAAPASSVGGHLCGTLAGCVRVQRAALDFLGTLSQGTGPQELVTQALAVLLECLESPGSSPTVLKKAFQATLRWLLSSPKTPGCSDLGPLIPQFLRELFPVLQKRLCHPCWEVRDSALEFLTQLSRHWGGQADFRCALLASEVPQLALQLLQDPESYVRASAVTAMGQLSSQGLHAPTSPEHAEARQSLFLELLHILSVDSEGFPRRAVMQVFTEWLRDGHADAAQDTEQFVATVLQAASRDLDWEVRAQGLELALVFLGQTLGPPRTHCPYAVALPEVAPAQPLTEALRALCHVGLFDFAFCALFDCDRPVAQKSCDLLLFLRDKIASYSSLREARGSPNTASAEATLPRWRAGEQAQPPGDQEPEAVLAMLRSLDLEGLRSTLAESSDHVEKSPQSLLQDMLATGGFLQGDEADCY
B2: M-Q7RTS9 (protein, UniProt Q7RTS9 2-669, looked up)
Dymeclin: GSNSSRIGDLPKNEYLKKLSGTESISENDPFWNQLLSFSFPAPTSSSELKLLEEATISVCRSLVENNPRTGNLGALIKVFLSRTKELKLSAECQNHIFIWQTHNALFIICCLLKVFICQMSEEELQLHFTYEEKSPGNYSSDSEDLLEELLCCLMQLITDIPLLDITYEISVEAISTMVVFLSCQLFHKEVLRQSISHKYLMRGPCLPYTSKLVKTLLYNFIRQEKPPPPGAHVFPQQSDGGGLLYGLASGVATGLWTVFTLGGVGSKAAASPELSSPLANQSLLLLLVLANLTDASDAPNPYRQAIMSFKNTQDSSPFPSSIPHAFQINFNSLYTALCEQQTSDQATLLLYTLLHQNSNIRTYMLARTDMENLVLPILEILYHVEERNSHHVYMALIILLILTEDDGFNRSIHEVILKNITWYSERVLTEISLGSLLILVVIRTIQYNMTRTRDKYLHTNCLAALANMSAQFRSLHQYAAQRIISLFSLLSKKHNKVLEQATQSLRGSLSSNDVPLPDYAQDLNVIEEVIRMMLEIINSCLTNSLHHNPNLVYALLYKRDLFEQFRTHPSFQDIMQNIDLVISFFSSRLLQAGAELSVERVLEIIKQGVVALPKDRLKKFPELKFKYVEEEQPEEFFIPYVWSLVYNSAVGLYWNPQDIQLFTMDSD
modifications: interactor of viral M protein
B3: M-Q86UL3 (protein, UniProt Q86UL3 38-456, looked up)
Glycerol-3-phosphate …: VSFGIRKLYMKSLLKIFAWATLRMERGAKEKNHQLYKPYTNGIIAKDPTSLEEEIKEIRRSGSSKALDNTPEFELSDIFYFCRKGMETIMDDEVTKRFSAEELESWNLLSRTNYNFQYISLRLTVLWGLGVLIRYCFLLPLRIALAFTGISLLVVGTTVVGYLPNGRFKEFMSKHVHLMCYRICVRALTAIITYHDRENRPRNGGICVANHTSPIDVIILASDGYYAMVGQVHGGLMGVIQRAMVKACPHVWFERSEVKDRHLVAKRLTEHVQDKSKLPILIFPEGTCINNTSVMMFKKGSFEIGATVYPVAIKYDPQFGDAFWNSSKYGMVTYLLRMMTSWAIVCSVWYLPPMTREADEDAVQFANRVKSAIARQGGLVDLLWDGGLKREKVKDTFKEEQQKLYSKMIVGNHKDRSRS
modifications: interactor of M protein
B4: M-Q8NDZ4 (protein, UniProt Q8NDZ4 36-430, looked up)
Divergent protein kinase …: LASWQRNELTDRRFLQLNKCPACFGTSWCRRFLNGQVVFEAWGRLRLLDFLNVKNVYFAQYGEPREGGRRRVVLKRLGSQRELAQLDQSICKRATGRPRCDLLQAMPRTEFARLNGDVRLLTPEAVEGWSDLVHCPSQRLLDRLVRRYAETKDSGSFLLRNLKDSERMQLLLTLAFNPEPLVLQSFPSDEGWPFAKYLGACGRMVAVNYVGEELWSYFNAPWEKRVDLAWQLMEIAEQLTNNDFEFALYLLDVSFDNFAVGPRDGKVIIVDAENVLVADKRLIRQNKPENWDVWYESKFDDCDKEACLSFSKEILCARATVDHNYYAVCQNLLSRHATWRGTSGGLLHDPPSEIAKDGRLEALLDECANPKKRYGRFQAAKELREYLAQLSNNVR
B5: M-Q8NEW0 (protein, UniProt Q8NEW0 1-376, looked up)
Zinc transporter 7: MLPLSIKDDEYKPPKFNLFGKISGWFRSILSDKTSRNLFFFLCLNLSFAFVELLYGIWSNCLGLISDSFHMFFDSTAILAGLAASVISKWRDNDAFSYGYVRAEVLAGFVNGLFLIFTAFFIFSEGVERALAPPDVHHERLLLVSILGFVVNLIGIFVFKHGGHGHSHGSGHGHSHSLFNGALDQAHGHVDHCHSHEVKHGAAHSHDHAHGHGHFHSHDGPSLKETTGPSRQILQGVFLHILADTLGSIGVIASAIMMQNFGLMIADPICSILIAILIVVSVIPLLRESVGILMQRTPPLLENSLPQCYQRVQQLQGVYSLQEQHFWTLCSDVYVGTLKLIVAPDADARWILSQTHNIFTQAGVRQLYVQIDFAAM
modifications: interaction partner of viral M protein
B6: M-Q8TBF5 (protein, UniProt Q8TBF5 22-258, looked up)
GPI …: LTRGPAAAFTAARSDAGIRAMCSEIILRQEVLKDGFHRDLLIKVKFGESIEDLHTCRLLIKQDIPAGLYVDPYELASLRERNITEAVMVSENFDIEAPNYLSKESEVLIYARRDSQCIDCFQAFLPVHCRYHRPHSEDGEASIVVNNPDLLMFCDQEFPILKCWAHSEVAAPCALENEDICQWNKMKYKSVYKNVILQVPVGLTVHTSLVCSVTLLITILCSTLILVAVFKYGHFSL
modifications: prey of SARS-CoV-2 M

What follows are molecules tested on SARS-CoV-1, MERS-CoV and SARS-CoV-2 proteins in HEK293T cells.
Set-up: species or system human

How did the MIST_MERS turn out when B1 was run?
The MIST_MERS was 0.

What about the MIST_SARS1 of the same molecule?
The MIST_SARS1 was 0.9911.

What about the MIST_SARS2 of the same molecule?
The MIST_SARS2 was 0.

And the Saint_MERS?
The Saint_MERS was 0.

What about the Saint_SARS1 of the same molecule?
Its Saint_SARS1 is 1.

And the Saint_SARS2?
Its Saint_SARS2 is 0.

What does the source list for B2?
MIST_MERS: 0; MIST_SARS1: 0.9893; MIST_SARS2: 0; Saint_MERS: 0; Saint_SARS1: 0.97; Saint_SARS2: 0

What does the source list for B3?
MIST_MERS: 0.2998; MIST_SARS1: 0.8496; MIST_SARS2: 0.485; Saint_MERS: 0.31; Saint_SARS1: 1; Saint_SARS2: 0.96

B4 was tested. Which MIST_MERS did it give?
The MIST_MERS was 0.7477.

And the MIST_SARS1?
Its MIST_SARS1 is 0.

What about the MIST_SARS2 of the same molecule?
The MIST_SARS2 was 0.

And the Saint_MERS?
The Saint_MERS was 1.

And the Saint_SARS1?
Its Saint_SARS1 is 0.

And the Saint_SARS2?
The Saint_SARS2 was 0.

Which MIST_MERS does the source give for B5 here?
The MIST_MERS was 0.5834.

What about the MIST_SARS1 of the same molecule?
Its MIST_SARS1 is 0.6222.

And the MIST_SARS2?
Its MIST_SARS2 is 0.767.

What about the Saint_MERS of the same molecule?
The Saint_MERS was 0.64.

What about the Saint_SARS1 of the same molecule?
The Saint_SARS1 was 0.97.

What about the Saint_SARS2 of the same molecule?
Its Saint_SARS2 is 1.

How did the MIST_MERS turn out when B6 was run?
The MIST_MERS was 0.

What about the MIST_SARS1 of the same molecule?
The MIST_SARS1 was 0.9901.

What about the MIST_SARS2 of the same molecule?
Its MIST_SARS2 is 0.4273.

And the Saint_MERS?
The Saint_MERS was 0.

And the Saint_SARS1?
The Saint_SARS1 was 0.99.

And the Saint_SARS2?
Its Saint_SARS2 is 0.33.
